assay: soluble on expression in E. coli; label from the status in PepcDB or PDB records

Sequence | soluble on expression in E. coli
MREKELKHIENLLLLKVKKEKIEETDKIKEYLKRFEDERRFDGIKESTIKSDLDRLRVFLDYCINYLGKNPEELKTSDFVKFFNYLDTVRKVSKSSQRKYFLLLKVFYRVLRMYNVIQEFVEESKDRKRFARIEIQHYDAVDAEMLNMILKKIIESGSRTRIRDALIIRLLWDTGCRVSEVLNLKYKDCDLDNGIFKIRNTKTHEERTVVCSSDTLELLRNYVQFNVRQGSDDYLFQNSQGGRVRKEWISEVFRKAVNELKEEGKIPKNRRIVIHSIRHGRAVDLLNKGVPIDIVKEYLGHKSMNTTLIYAHSKERAESLEFIKKLLRIQ | not soluble
MGSDKIHHHHHHMAIACVNTRASCGVEAPKVTVEVHLSNGLPAFNLVGLPEASVKEARERVRSALINAGFEFPMRRITVNLAPADLPKQGGRYDLPIAVGILAASEQIPANSLKNLEFVGELALSGQIRYCQGLLPAIIAAKRQDNTLILPLENRHDAELVGYQKVFFGSHLQSLAAFLQGQAPLPELDTHLEWVSEEQSYDSSQCLSDVIGQYQAKQALEIAAAGNHNLLMLGPPGTGKTMLASRMMALLPALSYEEALEVAAIHSVAGLDIKPQDFLKRPFRAPHHTSSSISLVGGGSIPKPGEISLAHRGVLFLDEVAEFPRKVLDCLREPMETGEVVISRAAAKLTFLSRFQLIAAMNPSPSGDIDANNRATPDQVQRYLARLSGPFLDRFDLTIEVPKLPAGTLTQAMAPSETSQDVAKRVRRARDIQLARSGVLNSELTGKQLKLFSGLTDADLIFLEQSVVKLGLSVRSFHRIQRVARTIADLEQSPNTERRHLAQALGYRAMDRLLARLSQQY | not soluble
MTHIYEPRLSRIAIDKLRPTQIAVGFREVELKRKEWRETRKKDGDDFLGNHIVPVVAGPKDRAYLIDHHHLVLALSKEGVEHVLTSEVAKFSHLGKDEFWSVMDHRNLIYPFDAQGLRRQSGDIPKNIHDLEDDPFRSLAGALRMAGGYAKVIIPFSEFGWADFLRRRIDRDLLSDSFDDALAEAMKLAKSREARHLPGWCGVEEAAALEHHHHHH | soluble
MGSDKIHHHHHHMSEQVRSLSEFTAEVEAMTAAMMTEEPQEIASMRCGEMENTAGSYGQYFGTWDIAHGMLRDYSMYTLYPITALAEDAEMDLTSLSKTVDALDPAYSNYLRYSGFPRMGKLAVELRGLIRASTSRSDIVAALRAFTAYTNRLQAWSFHYFPWGLGKHFRYDEARLQDAPLPVADLGATRACITCGQRIRISWEPLGITVNATLASEENPELCADVVAALPFTVIQDHAVVTGESMYAWTPVLSTAPIHLRERICDAPVGRLRYSQSTGQKFIVQYGPTTEDLSQPVLGEIDAADAGKLEQVGRAVWDSTFDNKQLIWMTVELA | not soluble
MSLLEKDINLKIFKGNLIFTKTSDKFTIMKDSYIVVIDGKIASVSSNLPDKYKGNPIIDFRNNIIIPGMNDLHAHASQYKNLGIGMDKELLPWLNNYTFPEEAKFLNVDYAKKTYGRLIKDLIKNGTTRVALFATLHKDSTIELFNMLIKSGIGAYVGKVNMDYNCPDYLTENYITSLNDTEEIILKYKDKSNIVKPIITPRFVPSCSNELMDGLGKLSYKYRLPVQSHLSENLDEIAVVKSLHKKSNFYGEVYDKFGLFGNTPTLMAHCIHSSKEEINLIKRNNVTIVHCPTSNFNLGSGMMPVRKYLNLGINVVLGSDISAGHTCSLFKVIAYAIQNSKIKWQESGKKDMFLSTSEAFYMATKKGGSFFGKVGSFEEGYDFDALVINDSNLYPEDYDLTERLERFIYLGDDRNIMKRYVCGNEIFGPKFEGHHHHHH | soluble
MPIPNNPGAGENAFDPVFVNDDDGYDLDSFMIPAHYKKYLTKVLVPNGVIKNRIEKLAYDIKKVYNNEEFHILCLLKGSRGFFTALLKHLSRIHNYSAVETSKPLFGEHYVRVKSYCNDQSTGTLEIVSEDLSCLKGKHVLIVEDIIDTGKTLVKFCEYLKKFEIKTVAIACLFIKRTPLWNGFKADFVGFSIPDHFVVGYSLDYNEIFRDLDHCCLVNDEGKKKYKATSL | soluble
MSLKKETLSDRLNKAMELAGMSQGALAKASGVAQPTIWRLTSGNARGSTKIVEIANALGVNSEWLSTGIGPMKKDGTTPINASPSSNTFKIDILDLEVSAGPGVINREFVEILRSVEYSQDDARHMFDGRKAENIRIINVRGDSMSGTIEPGDLLFVDVSIKNFDGDGIYAFLYDDTAHVKRLQKMKDKLLVISDNKSYSAWDPIERDEMNRVFVFGKVIGSMPQTYRKHGEGHHHHHH | soluble
MTENERAHADHASASPQRTRRRRGKPRRRMDSGASTQGGGASKSAAPSSSTSGSRGERGSRGDDKDKQNKHTRRKRRPAHRSTQRGSHGGDSSNSGSGIKRRRHTGNKNRGNQSRRQNNRSSRITTRDETSAGGLVISGLAEAVDENNNVDLSRIYVALIGRL | not soluble
MLRMDLQTYQKIYSSLHNFGDVFRLSEEYSRPAGMLATILNQKIVKMTRFKHRRVYSREKELFMKWKQGRSILELAEYTYFPPTLMASLILKNCDFSRKSINWLFKHLDCIENRRLRKEVRKALNADYFFSPRAHEMQCRKGEMGEEIVRKWLDDREIAYCTEAEIRAKGDGKTPDFVLSNPIFIEDHMVSWIESKALFGDDFEHKHYAKKQFREYADIFGEGMVVYWYGFLEDLSSEDEGYLIKDYRFFEGYQEQTDELFNYLVYWLEHHHHHH | not soluble
GSMAAAGNKSINAKLVLLGDVGAGKSSLVLRFVKDQFVEFQESTIGAAFFSQTLAVNDATVKFEIWDTAGQERYHSLAPMYYRGAAAAIIVFDVTNQASFERAKKWVQELQAQGNPNMVMALAGNKSDLLDARKVTAEDAQTYAQENGLFFMETSAKTATNVKEIFYEIARRLPRVQPTEN | soluble
MGSDKIHHHHHHMIRSLWTAKTGLESQQVKLDVISNNLSNVSTNGFKRSRPVFEDLLYQNVRQPGAQASAVDTLPSGLQVGTGVRPVATERLHTQGGLQNTDNSKDLAINGQGFFAVQMPDGTSAYTRDGSFQIDENGQMVTAGGYPLDPPIVIPENALSVSISQDGVVSVTQPGDTAAQEVGQLTLSKFINPAGLQSMGENLYQETDASGPRNDLIPGMEGAGRLYQGYVETSNVNVVEEMVSMIETQRAYEINSKAVETSDQMLSRLTQL | not soluble
MDVVEVAGSWWAQEREDIIMKYEKGHRAGLPEDKGPKPFRSYNNNVDHLGIVHETELPPLTAREAKQIRREISRKSKWVDMLGDWEKYKSSRKLIDRAYKGMPMNIRGPMWSVLLNTEEMKMKNPGRYQIMKEKGKRSSEHIQRIDRDVSGTLRKHIFFRDRYGTKQRELLHILLAYEEYNPEVGYCRDLSHIAALFLLYLPEEDAFWALVQLLASERHSLQGFHSPNGGTVQGLQDQQEHVVATSQPKTMGHQSASRRRPGVARGHVFATGSLIPGPGMRTLCSSILGPL | not soluble
MFENITAAPADPILGLADLFRADERPGKINLGIGVYKDETGKTPVLTSVKKAEQYLLENETTKNYLGIDGIPEFGRCTQELLFGKGSALINDKRARTAQTPGGTGALRVAADFLAKNTSVKRVWVSNPSWPNHKSVFNSAGLEVREYAYYDAENHTLDFDALINSLNEAQAGDVVLFHGCCHAPTGIDPTLEQWQTLAQLSVEKGWLPLFDFAYQGFARGLEEDAEGLRAFAAMHKELIVASSYSKNFGLYNERVGACTLVAADSETVDRAFSQMKAAILANYSNPPAHGASVVATILSNDALRAIWEQELTDMRQRIQRMRQLFVNTLQEKGANRDFSFIIKQNGMFSFSGLTKEQVLRLREEFGVYAVASGLVNVAGMTPDNMAPLCEAIVAVL | soluble
MSHYQCAVCSSIDANPNSLAVNYQCLADSSVVGEFHVLPRHQGYTDLLHGGIASSLLDGAMTHCLLFRDIQALTAQLDVRYHAPIELDEHVTITAHCEGERRGIYQLVAQLLVNNEVRVTAKGKFIRPKLEHHHHHH | soluble
IEYETHFFNEVTYLVDYLKVKALMMIPKNKKDIKRIVIYLRGGKGQVGRVRAARLMQFANEYTLVIGPYYRGNNGSEGRDEFYRGDLNDVTHLIRLLNQNYPSAFIHMVGFSRGGLQGLLTFNDLPVDSYMIWGGVSDIHLMYEERVDLRGMLRRMVGHPKKDAKAYKSRDAMQFIKKDSPPILIIHGGKDIQVGIHQAYDLEKKLKSKGIYYQTYYQLDEGHVPRPPAMRDVIRYIHQWMNNVENKN | not soluble
MSLETQWTRMTADEAAEIIQHNDMVAFSGFTPAGSPKALPTAIARRANEQHEAKKPYQIRLLTGASISAAADDVLSDADAVSWRAPYQTSSGLRKKINQGAVSFVDLHLSEVAQMVNYGFFGDIDVAVIEASALAPDGRVWLTSGIGNAPTWLLRAKKVIIELNHYHDPRVAELADIVIPGAPPRRNSVSIFHAMDRVGTRYVQIDPKKIVAVVETNLPDAGNMLDKQNPMCQQIADNVVTFLLQEMAHGRIPPEFLPLQSGVGNINNAVMARLGENPEIPPFMMYSEVLQESVVHLLETGKISGASASSLTISADSLRKIYDNMDYFASRIVLRPQEISNNPEIIRRLGVIALNVGLEFDIYGHANSTHVAGVDLMNGIGGSGDFERNAYLSIFMAPSIAKEGKISTVVPMCSHVDHNEHSVKVIITEQGIADLRGLSPLQRARTIIDNCAHPMYRDYLHRYLENAPGGHIHHDLSHVFDLHRNLIATGSMLGEGHHHHHH | soluble
MSLKKLDYHFHSHFSADSEELPRKHVTEAIAHGLEEICFTEHRDFYFPGMDFSLNLPEYFQEINRLQAEFKDKIKIKIGLEMGIDLRFKSEINQFIDSAPFDFVIASVHEIGDIEVYDGTEFYLQKIKEEAQREYLLACLDVVQNFENYNSFGHLDYVARYGPYTDKSIKFAENREILFEILRALASKEKALEINTRLFDDPKTEQFYSDLLINFKKLGGKFITLGTDSHIAKRDWLSIHKARTLIKKAGFHELATFSGMKIDKNKKSIKEGHHHHHH | soluble
MRICSDQPCIVLLTEKDVWIRVNGKEPISLKANHMALLNCENNIIDVSSLNNTLVAHISHDIIKDYLRFLNKDLSQIPVWQRSATPILTLPCLTPDVFRVAAQHSMMPAETESEKERTRALLFTVLSRFLDSKKFVSLMMYMLRNCVSDSVYQIIESDIHKDWNLSMVASCLCLSPSLLKKKLKSENTSYSQIITTCRMRYAVNELMMDGKNISQVSQSCGYNSTSYFISVFKDFYGMTPLHYVSQHRERTVA | soluble
MGSDKIHHHHHHMMKMQVVIASGKGGVGKSSITASLLYLLKDEYKLIAVDADAEAPNLGLLLGVTEWEIEREHIGAKIARINPESCIRCGLCQMRCPYECIYVDEEGNYVVNELTCEGCNVCGLVCPVPGTITLEEVRSGIIRKATTKYGFPIISAQLDVGKPESGKLVTEEKEWASKIMKEEGLEHMIVDSAAGIGCQVIASVGGADVAILIAEPTPASLSDVQRVYKVVQHFREPAYLIINKADINPGFTKLREWAESEGIPILGEVPYDSSIPRSMSMLKPFVEAFPDSKASEAIRGIAERIKEEILKG | not soluble
DGTVLPGPVPVTVAVRAPGDENDEDASGEASTPNAVRPRTSCRRDRFVAGIVRGTFHPDLYMCSQDCITFKGKRIGRSKFEKLGNSSMAKWHRSIRVIREDGELEPLGEWLTRHGLPVLKGKQRISRKRTIRI | not soluble
MFKNEDAKATGTSEMAPALVAAFGGKENITNLDACITRLRVSVADVSKVDQAGLKKLGAAGVVVAGSGVQAIFGTKSDNLKTEMDEYIRNFGSRSHHHHHH | soluble
MSEKPLTKTDYLMRLRRCQTIDTLERVIEKNKYELSDNELAVFYSAADHRLAELTMNKLYDKIPSSVWKFIR | soluble

Source: the DeepSol protein solubility set
